According to publication PMC4831847:

Test system: hPBV RdRP WT (human picobirnavirus strain Hy005102)
Experiment: EMSA
Conditions: 50 mM Tris-HCl pH 7.5, 50 mM KCl, 1 mM NaN3, 5 mM beta-mercaptoethanol, 10% glycerol, 1 nM 32P-RNA, 30 min at room temperature, 15% native PAGE in ice bath

## CACACACACACACACACACA [CA repeat 20-mer]
  binding signal (fold lower affinity than 5'-(+)UTR): 10

## PBV2+(Δ1-645)
  binding signal (fold weaker than full-length PBV2+): 10

## GUAAAAUUUUCGAAUUUUAU [PBV 5'-(+)UTR]
scale: fold higher affinity than 3'-(+)UTR or CA repeat
  binding signal: 10

## GGACUAACAGUCCCAACUGC [PBV 3'-(+)UTR]
  binding signal (fold lower affinity than 5'-(+)UTR): 10

## PBV2+ full-length
  binding signal (fold stronger than PBV2+(Δ1-645)): 10
